We go through 1 variant from IntAct's records for PubMed 19726565.

The chains are these.
B1: Inositol phosphorylceramide synthase regulatory subunit KEI1 (Saccharomyces cerevisiae), Q06346 (parent)
chain: MRSSLLTLPKSFLGFMPLYLAVEIVLGISILNKCSGAYGILALFTGHPLDFMQWIAYLWSVFTLIVFSQGLYLIHKPNLLVFSQICVLYTIDTISTCFFTLWFTTQWFTLEDTANIDGNNALQSNPISTGKLTERGIDISKQSATESYEYTMTILITLVSLIFRFYFNFILASFVQELLHHPKYLVDRDDVEQNLKNKPIWKRLWAKSQKGCYKLCKNLLE
partner: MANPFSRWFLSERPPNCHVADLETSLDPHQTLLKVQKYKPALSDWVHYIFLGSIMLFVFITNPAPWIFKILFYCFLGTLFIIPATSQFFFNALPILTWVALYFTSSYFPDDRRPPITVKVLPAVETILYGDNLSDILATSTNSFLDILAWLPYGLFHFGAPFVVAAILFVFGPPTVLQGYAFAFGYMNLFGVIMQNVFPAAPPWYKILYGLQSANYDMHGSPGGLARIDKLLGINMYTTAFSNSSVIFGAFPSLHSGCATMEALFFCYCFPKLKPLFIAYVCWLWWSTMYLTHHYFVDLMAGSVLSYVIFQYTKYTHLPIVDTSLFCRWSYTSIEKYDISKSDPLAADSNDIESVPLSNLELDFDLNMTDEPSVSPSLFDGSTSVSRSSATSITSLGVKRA

Variants of B1 are the subject of this test. Particulars: with aur1_yeast AUR1, P36107.
Turning to F103I, the “effect of a mutation on the interaction” value is “disrupting interaction strength”.
